This is an account of results in publication PMC12057666 (Science Advances, 2025).

What all share (settings): both partners purified
Assay [1] addresses T1, HEV-P, wild-type HEV-CA P domain protein, ORF2(455-601), genotype 3, 2712 strain (hepatitis E virus genotype 3, strain …, UniProt Q9YLQ9).
T1 construct: source: Freestyle 293-F, transient transfection (PEI), purified from culture supernatant (Ni Sepharose Excel)
Kind of assay: ELISA; plates coated overnight with 125 ng per well of purified protein; serial dilutions of monoclonal antibodies in PBS, 2 hours; HRP anti-human IgG. In general terms: An ELISA detects its analyte on a solid surface through an enzyme-linked reagent.

In assay [2] the target is T2, genotype 1d HEV-CA protein (1d Morocco) (Hepatitis E virus genotype 1d, Morocco, …, UniProt Q9W7W9, strain).
T2 construct: hepatitis E virus capsid protein (ORF2), genotype 1d, strain Morocco; the 3-2712 HEV-CA construct of the same list is ORF2 126-601; Igk leader at the N terminus of the construct; also called genotype 1 HEV-CA; source: Freestyle 293-F, transient transfection (PEI), purified from culture supernatant (Ni Sepharose Excel)
Kind of assay: SPR; Biacore 2000; purified IgG (10 μg/ml) captured on Protein G sensor chip; capsid proteins injected at 5 or 10 to 0.312 nM; HBS-EP (10 mM Hepes pH 7.2, 150 mM NaCl, 3 mM EDTA, 0.005% Tween 20); 22°C; Langmuir model, global analysis; apparent affinity. In general terms: SPR reads the build-up and loss of mass on a sensor chip optically.

Assay [3] deals with T3, genotype 3a HEV-CA protein (3a Meng) (Hepatitis E virus genotype 3a, swine …, UniProt Q6J8F7, strain).
T3 construct: also called genotype 3 HEV-CA; source: Freestyle 293-F, transient transfection (PEI), purified from culture supernatant (Ni Sepharose Excel)
The description is as above.

Assay [4] deals with T4, HEV-C1 capsid protein (Rocahepevirus, rat hepatitis E virus) (Rocahepevirus (rat hepatitis E virus …, UniProt E0XL23, strain)).
T4 construct: capsid protein (ORF2) of Rocahepevirus HEV-C1 (rat hepatitis E virus); Igk leader at the N terminus of the construct; also called HEV-C1 protein; Rocahepevirus CA; source: Freestyle 293-F, transient transfection (PEI), purified from culture supernatant (Ni Sepharose Excel)
Described as above.

T1 sequence (Q9YLQ9 455-601): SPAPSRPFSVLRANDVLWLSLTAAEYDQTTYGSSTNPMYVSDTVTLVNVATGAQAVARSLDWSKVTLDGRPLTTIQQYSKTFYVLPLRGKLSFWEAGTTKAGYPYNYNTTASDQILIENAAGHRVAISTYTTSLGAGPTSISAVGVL

B1: Es4.431 IgG antibody (antibody, V domains shown)
VH: EVQLLESGGGLVQPGGSLRLSCTASGFTFDTHVMSWVRQGPGKGLEWVSSISAASGTYYAGSVKGRFTISRDNSKNTLFLHMNSLRVEDTGVYYCANVVHRCTTNTCFRGADNWGQGTLVTVSS
VL: PSSLSASVGDRVTITCRASQSVDTYLNWYQQKPGETPKLLIYAASTLQSGVPSRFSGSGSGTTFTLTISSLQPEDFATYYCQQSYTTLMYTFGQGTKLEIK
notes: source: Freestyle 293-F, transient cotransfection, purified (Protein G Sepharose 4 Fast Flow)
Turning to B1, in assay [1], the binding result was “binds”.

B2: Es5.127 IgG antibody (antibody, V domains shown)
VH: EVQLVQSGAEVKKPGESLKISCKGSGYRSGYSFSSYWIGWVRQRPGKGLEWMGIIQPGDSDTTYSPSFQGQVTISADKSINTAYLQWSSLKASDTAIYYCARVRGSLKVPAAVPFDPWGQGTLVTVSS
VL: QSVLTQPPSVSAAPGQKVTISCSGSSSNIGNNYVSWYQQFPGIAPKLLIYDNNKRPSGIPDRFSGSKSGTSATLGITGLQTGDEADYYCGTWDSSLSDVVFGGGTKLTVL
notes: as for B1
For the molecule B2, the binding result in assay [2] was “binds”. The results for the Kd in assay [3] and in assay [4] were 0.41 nM and 1.6 nM, respectively.

B3: Es1.327 IgG antibody (antibody, V domains shown)
VH: QVQLVQSGGEVKKPGASVRVSCQTSGYSFTHYSITWVRQAPGQGLEWMGWITTYNGKTSYAQKFQDRVTMTADTSSRTAYVELRSLRSDDTAVYYCVRVWTGYGTNRGDYWGQGTLVTVSS
VL: PSSLYASVGDRVTITCRASQSINTFLNWYQQKPGNAPKLLIHAASTLESGVPSRFSGSGSGTDFTLTISSLQPEDFATYYCQQSDNNFALTFGGGTKVEIR
notes: as for B1
In the case of B3, the binding result in assay [1] is “binds”.
